Measured values as given in patent publication US20230295238A1, “INSULIN RECEPTOR-MEDIATED ENHANCEMENT OF GENE TRANSFER” (THE SCRIPPS RESEARCH INSTITUTE, priority 2020, published 2023).
Entries after “also recorded” stand apart in the source; their conditions may differ. Where two headings read alike, the source gives them in different places.

Columns and labels:
[1] = molecular target: S519(VIII)-AAV9 (enhanced AAV9), mosaic AAV9 vector with insulin-mimetic peptide S519 inserted in capsid VR-VIII (adeno-associated virus serotype 9); assay: cell-based or functional assay
HEK293T cells = assay type: cell-based, human; conditions: FLuc-encoding eAAV9; luciferase activity 24 hpt
[2] = Blood glucose after intramuscular injection in fasted mice; assay type: in vivo, mouse; conditions: 0.5 U/kg intramuscular
Protocol: Because of the physiological role of insulin in modulating blood glucose levels, we asked whether eAAV9, with its insulin-mimetic insertion, would exert a measurable effect on the blood glucose concentration of mice. Mice were fasted as described above, and blood glucose was measured by microsampling immediately before injection of vectors to obtain a baseline value. Mice were injected in the gastrocnemius muscle with 10^9 vg of WT AAV9, eAAV9, or, as a positive control, human insulin at 0.5 U/kg, a typical therapeutic dose for a patient with diabetes mellitus type 2 (FIG. 4D). Blood glucose was then measured at 45 min, 2 h, and 4 h post injection of vectors or insulin.
Blood glucose measurement. At 4 hours before glucose measurement, mice were relocated to a cage with iso-PADS bedding (Envigo) with access to water but no food source. Mice were then anesthetized with isoflurane and their left hind limb was shaved. Blood glucose was measured with a Contour Next glucometer (Bayer) by puncturing the saphenous vein with a lancet and sampling 1 ul of venous blood by capillary action. After the first glucose measurement, mice were injected in the medial aspect of the right gastrocnemius muscle with either 10^9 vector genomes or 0.5 U/kg human insulin (Tocris). Subsequent blood glucose measurements were performed in the same way as the first. […]

[3] = molecular target: human insulin receptor, endogenous on HEK293T / Control 293T cells (human) (UniProt P06213); assay: cell-based or functional assay
IR [4] = molecular target: T1, IR (Homo sapiens, UniProt P06213); conditions: cited from earlier work
IR [5] = molecular target: T1, IR; conditions: cited from earlier work; remark: listed apart in the source

Substance: human IR ectodomain fused to an Fc tag (IR-Fc) (from UniProt P06213 28-956) (Fc fusion)
- inhibition of eAAV9 transduction of HEK293T cells (luciferase activity 24 h after transduction), IC50 [1]: 0.6 nM

Substance: human insulin
- IC50 of human insulin for inhibition of eAAV9 transduction (HEK293T cells): 5.2 µg/mL
- blood glucose ([2]; 2 and 4 hours): rebound effect
- blood glucose ([2]; 45 min): sharp and statistically significant decrease

Substance: human insulin (Tocris) (from UniProt P01308 90-110) (ligand)
- inhibition of eAAV9 transduction of HEK293T cells by human insulin (luciferase activity), IC50 [3]: 5.2 µg/mL

Substance: insulin-mimetic peptide GSLDESFYDWFERQLGKK (SEQ ID NO:8) [S371]
- Kd (IR [4]; read-out: affinity of binding to IR): ~40 nM
- activity on IR (IR [5]): activates the receptor in the absence of insulin

Substance: insulin-mimetic peptide, 36 amino acid linear peptide SLEEEWAQVECEVYGRGCPSGSLDESFYDWFERQLG (SEQ ID NO:7) (SLEEEWAQVECEVYGRGCPSGSLDESFYDWFERQLG) [S519]
- Kd (IR [4]; human IR, read-out: Kd for IR): 0.02 nM
- activity on IR (IR [5]): behaves as an agonist; also recorded: agonist activity on IR
